In patent publication US20140087995A1 (published 2014):
Numbered stars: 1 amine (or outer) side, 2 acyl side, 3 side chain; on linkers, the order of the positions; unused ones are H or OH. Bridge positions count the residues as written; N and C are the ends. Side chains are listed from the residue outwards. Ends that are not written are not given here. * marks the point of attachment. C20 diacid = O=C(O)CCCCCCCCCCCCCCCCCCC(=O)*; γGlu = O=C(O)[C@H](CCC(=O)[*:2])N[*:1]; AEEA = NCCOCCOCC(=O)O

T1: rat calcitonin receptor (rat, UniProt P32214 25-516)
T1 construct: whole, on cells; Membranes prepared from transiently transfected BHK tk'ts 13 cells (Assay VIII); also called rCTR; rCT
T1 sequence (looked up): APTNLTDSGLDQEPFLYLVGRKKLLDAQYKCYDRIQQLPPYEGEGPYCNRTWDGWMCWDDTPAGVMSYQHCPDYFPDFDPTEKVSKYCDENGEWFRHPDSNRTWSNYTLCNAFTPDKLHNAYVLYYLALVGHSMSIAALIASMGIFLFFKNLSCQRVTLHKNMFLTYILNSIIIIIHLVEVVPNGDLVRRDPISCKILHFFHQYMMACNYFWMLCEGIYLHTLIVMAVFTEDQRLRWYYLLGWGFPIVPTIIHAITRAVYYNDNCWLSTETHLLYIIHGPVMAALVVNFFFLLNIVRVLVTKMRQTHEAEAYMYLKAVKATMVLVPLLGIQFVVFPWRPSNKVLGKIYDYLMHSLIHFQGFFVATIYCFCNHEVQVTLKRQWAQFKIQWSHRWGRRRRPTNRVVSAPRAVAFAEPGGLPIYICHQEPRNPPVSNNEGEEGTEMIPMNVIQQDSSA

T2: human calcitonin receptor (human, UniProt P30988 25-474)
T2 construct: whole, on cells; Membranes prepared from a stably transfected BHK cell line (Assay VII); also called hCTR; hCT
T2 sequence (looked up): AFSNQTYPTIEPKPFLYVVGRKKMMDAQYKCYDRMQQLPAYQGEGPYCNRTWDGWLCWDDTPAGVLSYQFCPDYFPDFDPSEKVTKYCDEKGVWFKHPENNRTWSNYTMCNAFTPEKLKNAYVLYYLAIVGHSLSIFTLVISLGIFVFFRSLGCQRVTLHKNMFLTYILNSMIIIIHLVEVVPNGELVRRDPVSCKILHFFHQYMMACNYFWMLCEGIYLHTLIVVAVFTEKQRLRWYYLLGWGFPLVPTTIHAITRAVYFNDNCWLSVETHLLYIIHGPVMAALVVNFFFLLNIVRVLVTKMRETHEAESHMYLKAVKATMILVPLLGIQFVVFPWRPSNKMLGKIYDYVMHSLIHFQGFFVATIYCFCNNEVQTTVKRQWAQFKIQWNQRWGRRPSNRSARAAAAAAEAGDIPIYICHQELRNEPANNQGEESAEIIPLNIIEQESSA

T3: rat amylin receptor (rat calcitonin receptor + rat RAMP 3) (rat, UniProt P32214 25-516; Q9JJ73 23-147)
T3 construct: whole, on cells; Membranes prepared from transiently transfected BHK tk'ts 13 cells (Assay VI); also called rAmylin-R; rAmylin
T3 sequence (looked up) 1: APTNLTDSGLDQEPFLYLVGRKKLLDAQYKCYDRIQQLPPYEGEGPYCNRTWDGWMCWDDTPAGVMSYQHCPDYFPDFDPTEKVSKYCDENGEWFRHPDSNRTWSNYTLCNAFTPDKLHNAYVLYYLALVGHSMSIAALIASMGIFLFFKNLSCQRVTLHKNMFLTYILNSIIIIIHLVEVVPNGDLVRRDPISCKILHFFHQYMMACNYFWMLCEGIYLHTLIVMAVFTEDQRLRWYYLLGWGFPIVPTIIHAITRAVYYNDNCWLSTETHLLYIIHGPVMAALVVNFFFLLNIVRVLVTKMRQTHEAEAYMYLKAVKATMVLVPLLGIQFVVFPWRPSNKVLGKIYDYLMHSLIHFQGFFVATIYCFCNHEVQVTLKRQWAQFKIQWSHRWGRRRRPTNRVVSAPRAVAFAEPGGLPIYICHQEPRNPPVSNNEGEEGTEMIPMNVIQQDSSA
T3 sequence (looked up) 2: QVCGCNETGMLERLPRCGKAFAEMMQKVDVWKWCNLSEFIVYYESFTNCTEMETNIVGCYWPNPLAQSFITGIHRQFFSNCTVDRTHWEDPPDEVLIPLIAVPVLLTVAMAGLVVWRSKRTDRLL


Tests used:
rat calcitonin receptor [1] = target: T1, rat calcitonin receptor; test: ratio of binding IC50s: rat calcitonin receptor / rat amylin receptor (reference)
[2] = target: T2, human calcitonin receptor; test: ratio of binding IC50s: human calcitonin receptor / human amylin receptor (reference)
Procedure: The resulting pellet was resuspended, homogenized and centrifuged (20.000 rpm, 15 min) in a buffer containing 20 mM Na-HEPES and 0.1 mM EDTA (pH 7.4, buffer 2). The resulting pellet was resuspended in buffer 2 and protein concentration was measured (BCA protein Assay, Pierce). The homogenate was kept cold during the whole procedure. The membranes were kept at −80° C. until use. The assay was performed in a 384 well Optiplate (PerkinElmer) in a total volume of 40 ul. Membranes were mixed with SPA beads. Final concentration of membranes 35 ng/μL final and SPA beads was 0.05 mg/well. Test-compounds were dissolved in DMSO and further diluted in assay buffer (50 mM Hepes, pH 7.4, 1 mM CaCl2, 5 mM MgCl₂, 0.1% OA and 0.02% Tween20). […] The final mixture was incubated with shaking at 400 rpm for 120 min at 25° C. prior to centrifugation (1500 rpm, 10 min). Samples were analyzed on TopCounter™ (Packard). The IC₅₀ was calculated using (one site binding competition analysis) GraphPad Prism5 as a measure of receptor affinity.
Membranes were prepared in the following way; the cells were rinsed with PBS and incubated with Versene for approximately 5 min before harvesting. The cells were flushed with PBS and the cell-suspension was centrifuged for 5 min at 1000 rpm. Cells were homogenized (Ultrathurrax) in a buffer containing 20 mM Na-HEPES and 10 mM EDTA (pH 7.4) and centrifuged at 20.000 rpm for 15 min. The resulting pellet was resuspended, homogenized and centrifuged (20.000 rpm, 15 min) in a buffer containing 20 mM Na-HEPES and 0.1 mM EDTA (pH 7.4, buffer 2). The resulting pellet was resuspended in buffer 2 and protein concentration was measured (BCA protein Assay, Pierce). The homogenate was kept cold during the whole procedure. The membranes were kept at −80° C. until use. Assay was performed in a 384 well Optiplate (PerkinElmer) in a total volume of 40 ul. Membranes were mixed with SPA beads.

rat calcitonin receptor [3] = target: T1, rat calcitonin receptor; test: SPA competition vs 125I-calcitonin, membranes of BHK cells with rat calcitonin receptor (Assay VIII)
[4] = target: T3, rat amylin receptor (rat calcitonin …); test: SPA competition vs 125I-rat amylin, membranes of BHK cells with rat calcitonin receptor + rat RAMP3 (Assay VI)
Procedure: The binding assay was performed using scintillation proximity assay (SPA) beads (RPNQ0001) from PerkinElmer and cell membranes from the Amylin 3(a)/CRE-luc cells (as described in Assay (II)) were used. Membranes were prepared in the following way; the cells were rinsed with PBS and incubated with Versene for approximately 5 min before harvesting. The cells were flushed with PBS and the cell-suspension was centrifuged for 5 min at 1000 rpm. Cells were homogenized (ultrathurrax) in a buffer containing 20 mM Na-HEPES and 10 mM EDTA (pH 7.4) and centrifuged at 20.000 rpm for 15 min. The resulting pellet was resuspended, homogenized and centrifuged (20.000 rpm, 15 min) in a buffer containing 20 mM Na-HEPES and 0.1 mM EDTA (pH 7.4, buffer 2). The resulting pellet was resuspended in buffer 2 and protein concentration was measured (BCA protein Assay, Pierce). The homogenate was kept cold during the whole procedure. The membranes were kept at −80° C. until use. The assay was performed in a 384 well Optiplate (PerkinElmer) in a total volume of 40 ul. Membranes were mixed with SPA beads. Final concentration of membranes 35 ng/μL final and SPA beads was 0.05 mg/well. Test-compounds were dissolved in DMSO and further diluted in assay buffer (50 mM Hepes, pH 7.4, 1 mM CaCl2, 5 mM MgCl₂, 0.1% OA and 0.02% Tween20). […] The final mixture was incubated with shaking at 400 rpm for 120 min at 25° C. prior to centrifugation (1500 rpm, 10 min). Samples were analyzed on TopCounter™ (Packard). The IC₅₀ was calculated using (one site binding competition analysis) GraphPad Prism5 as a measure of receptor affinity.
Cells were grown in DMEM with 10% FBS and 1% Pen/Strep. Approximately 48 hours after transfection, the cells were harvested and membranes were prepared.

Binder	Ratio rCT/rAmylin binding (rat calcitonin receptor [1])	Ratio hCT/hAmylin binding [2]	IC50 (rat calcitonin receptor [3])	IC50 [4]
K([AEEA-γGlu-C20 diacid])CNTATCATQRLARFLRHSSPNFGAIPSSTNVGSNTY-NH2 (disulfide 2-7; N-terminus assumed; SMILES CC[C@H](C)[C@H](NC(=O)[C@H](C)NC(=O)CNC(=O)[C@H](Cc1ccccc1)NC(=O)[C@H](CC(N)=O)NC(=O)[C@@H]1CCCN1C(=O)[C@H](CO)NC(=O)[C@H](CO)NC(=O)[C@H](Cc1c[nH]cn1)NC(=O)[C@H](CCCNC(=N)N)NC(=O)[C@H](CC(C)C)NC(=O)[C@H](Cc1ccccc1)NC(=O)[C@H](CCCNC(=N)N)NC(=O)[C@H](C)NC(=O)[C@H](CC(C)C)NC(=O)[C@H](CCCNC(=N)N)NC(=O)[C@H](CCC(N)=O)NC(=O)[C@@H](NC(=O)[C@H](C)NC(=O)[C@@H]1CSSC[C@H](NC(=O)[C@@H](N)CCCCNC(=O)COCCOCCNC(=O)CC[C@H](NC(=O)CCCCCCCCCCCCCCCCCCC(=O)O)C(=O)O)C(=O)N[C@@H](CC(N)=O)C(=O)N[C@@H]([C@@H](C)O)C(=O)N[C@@H](C)C(=O)N[C@@H]([C@@H](C)O)C(=O)N1)[C@@H](C)O)C(=O)N1CCC[C@H]1C(=O)N[C@@H](CO)C(=O)N[C@@H](CO)C(=O)N[C@H](C(=O)N[C@@H](CC(N)=O)C(=O)N[C@H](C(=O)NCC(=O)N[C@@H](CO)C(=O)N[C@@H](CC(N)=O)C(=O)N[C@H](C(=O)N[C@@H](Cc1ccc(O)cc1)C(N)=O)[C@@H](C)O)C(C)C)[C@@H](C)O, Analogue of human amylin; also called compound 82)	87	140	143 nM	1.64 nM
K([AEEA-γGlu-C20 diacid])CNTATCATQRLANFLRHSSPNFGAIPSSTNVGRNTY-NH2 (disulfide 2-7; N-terminus assumed; SMILES CC[C@H](C)[C@H](NC(=O)[C@H](C)NC(=O)CNC(=O)[C@H](Cc1ccccc1)NC(=O)[C@H](CC(N)=O)NC(=O)[C@@H]1CCCN1C(=O)[C@H](CO)NC(=O)[C@H](CO)NC(=O)[C@H](Cc1c[nH]cn1)NC(=O)[C@H](CCCNC(=N)N)NC(=O)[C@H](CC(C)C)NC(=O)[C@H](Cc1ccccc1)NC(=O)[C@H](CC(N)=O)NC(=O)[C@H](C)NC(=O)[C@H](CC(C)C)NC(=O)[C@H](CCCNC(=N)N)NC(=O)[C@H](CCC(N)=O)NC(=O)[C@@H](NC(=O)[C@H](C)NC(=O)[C@@H]1CSSC[C@H](NC(=O)[C@@H](N)CCCCNC(=O)COCCOCCNC(=O)CC[C@H](NC(=O)CCCCCCCCCCCCCCCCCCC(=O)O)C(=O)O)C(=O)N[C@@H](CC(N)=O)C(=O)N[C@@H]([C@@H](C)O)C(=O)N[C@@H](C)C(=O)N[C@@H]([C@@H](C)O)C(=O)N1)[C@@H](C)O)C(=O)N1CCC[C@H]1C(=O)N[C@@H](CO)C(=O)N[C@@H](CO)C(=O)N[C@H](C(=O)N[C@@H](CC(N)=O)C(=O)N[C@H](C(=O)NCC(=O)N[C@@H](CCCNC(=N)N)C(=O)N[C@@H](CC(N)=O)C(=O)N[C@H](C(=O)N[C@@H](Cc1ccc(O)cc1)C(N)=O)[C@@H](C)O)C(C)C)[C@@H](C)O, Analogue of human amylin; also called compound 78)	69.9	60.7	90.6 nM	1.3 nM

Now those with a lower IC50 (rat calcitonin receptor [3]), led by results:

Ratio rCT/rAmylin binding (rat calcitonin receptor [1])	Ratio hCT/hAmylin binding [2]	IC50 (rat calcitonin receptor [3])	IC50 [4]	Binder
56.8	80	38.9 nM	0.686 nM	K([AEEA-γGlu-C20 diacid])CNTATCATQRLANFLRHSSPNFGAIPSSTNVGHNTY-NH2 (disulfide 2-7; N-terminus assumed; SMILES CC[C@H](C)[C@H](NC(=O)[C@H](C)NC(=O)CNC(=O)[C@H](Cc1ccccc1)NC(=O)[C@H](CC(N)=O)NC(=O)[C@@H]1CCCN1C(=O)[C@H](CO)NC(=O)[C@H](CO)NC(=O)[C@H](Cc1c[nH]cn1)NC(=O)[C@H](CCCNC(=N)N)NC(=O)[C@H](CC(C)C)NC(=O)[C@H](Cc1ccccc1)NC(=O)[C@H](CC(N)=O)NC(=O)[C@H](C)NC(=O)[C@H](CC(C)C)NC(=O)[C@H](CCCNC(=N)N)NC(=O)[C@H](CCC(N)=O)NC(=O)[C@@H](NC(=O)[C@H](C)NC(=O)[C@@H]1CSSC[C@H](NC(=O)[C@@H](N)CCCCNC(=O)COCCOCCNC(=O)CC[C@H](NC(=O)CCCCCCCCCCCCCCCCCCC(=O)O)C(=O)O)C(=O)N[C@@H](CC(N)=O)C(=O)N[C@@H]([C@@H](C)O)C(=O)N[C@@H](C)C(=O)N[C@@H]([C@@H](C)O)C(=O)N1)[C@@H](C)O)C(=O)N1CCC[C@H]1C(=O)N[C@@H](CO)C(=O)N[C@@H](CO)C(=O)N[C@H](C(=O)N[C@@H](CC(N)=O)C(=O)N[C@H](C(=O)NCC(=O)N[C@@H](Cc1c[nH]cn1)C(=O)N[C@@H](CC(N)=O)C(=O)N[C@H](C(=O)N[C@@H](Cc1ccc(O)cc1)C(N)=O)[C@@H](C)O)C(C)C)[C@@H](C)O, Analogue of human amylin; also called compound 76)
130	104	10.9 nM	0.084 nM	K([AEEA-γGlu-C20 diacid])CNTATCATQRLANFLRHSSPNFGAIPPSTPVGSNTY-NH2 (disulfide 2-7, Analogue of human amylin; also called compound 53)
